Reference: the supplement of paper PMC9233669
Variants at the floor of the assay were thinned out.

How the values were obtained:
biotinyl-Leu-oxazolone = test: self-aminoacylation, catalytic enhancement (BLO) (fold over background); higher = more active; k-Seq, kA / k0A0; sequences stand for … in GGGAAUGGAUCCACAUCUACGAAUUC…UUCACUGCAGACUUGACGAAGCUG
Summary of the method: (§1)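 The uncatalyzed rate is the low-activity peak of a bimodal Gaussian fit, and catalytic enhancement is median kA divided by it. The kA values came from pseudo-first-order fits, with 1000 bootstraps, of per-sequence fraction reacted measured by streptavidin capture, triplicate qPCR and Illumina sequencing. Mutagenized RNA pools with a 21-nt variable region (0.43 μM) were reacted with each biotinyl-aminoacyl-oxazolone at 2–1250 μM in 50 μL HEPES/NaCl/KCl/MgCl2/CaCl2 buffer with 5% acetonitrile, pH 6.9–7.0, for 90 minutes at room temperature.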

biotinyl-Trp-oxazolone = test: self-aminoacylation, catalytic enhancement (BWO) (fold over background); higher = more active; k-Seq, kA / k0A0; sequences stand for … in GGGAAUGGAUCCACAUCUACGAAUUC…UUCACUGCAGACUUGACGAAGCUG
Summary of the method: as §1

biotinyl-Val-oxazolone = test: self-aminoacylation, catalytic enhancement (BVO) (fold over background); higher = more active; k-Seq, kA / k0A0; sequences stand for … in GGGAAUGGAUCCACAUCUACGAAUUC…UUCACUGCAGACUUGACGAAGCUG
Summary of the method: as §1

biotinyl-Met-oxazolone = test: self-aminoacylation, catalytic enhancement (BMO) (fold over background); higher = more active; k-Seq, kA / k0A0; sequences stand for … in GGGAAUGGAUCCACAUCUACGAAUUC…UUCACUGCAGACUUGACGAAGCUG
Summary of the method: as §1

biotinyl-Ile-oxazolone = test: self-aminoacylation, catalytic enhancement (BIO) (fold over background); higher = more active; k-Seq, kA / k0A0; sequences stand for … in GGGAAUGGAUCCACAUCUACGAAUUC…UUCACUGCAGACUUGACGAAGCUG
Summary of the method: as §1

biotinyl-Phe-oxazolone = test: self-aminoacylation, catalytic enhancement (BFO) (fold over background); higher = more active; k-Seq, kA / k0A0; sequences stand for … in GGGAAUGGAUCCACAUCUACGAAUUC…UUCACUGCAGACUUGACGAAGCUG
Summary of the method: as §1

Sequence | self-aminoacylation (biotinyl-Leu-oxazolone) | self-aminoacylation (biotinyl-Trp-oxazolone) | self-aminoacylation (biotinyl-Val-oxazolone) | self-aminoacylation (biotinyl-Met-oxazolone) | self-aminoacylation (biotinyl-Ile-oxazolone) | self-aminoacylation (biotinyl-Phe-oxazolone)
CUACUUCAAACAAUCGGACUA [Fam1A.1 aminoacylation ribozyme variant] | 0.617 | 0.655 | 0.744 | 0.579 | 0.831 | 1.13
CUACUUCAAACAAUCGGAUUG [Fam1A.1 aminoacylation ribozyme variant] | 0.719 | 1.3 | 0.89 | 0.953 | 0.999 | 2.03
CUACUUCAAACAAUCGGCCAG [Fam1A.1 aminoacylation ribozyme variant] | 1.19 | 0.954 | 1.36 | 1.02 | 1.44 | 1.84
CUACUUCAAACAAUCGGCCUC [Fam1A.1 aminoacylation ribozyme variant] | 1.89 | 7.78 | 1.88 | 1.63 | 1.8 | 11.8
CUACUUCAAACAAUCGGCGUG [Fam1A.1 aminoacylation ribozyme variant] | 6.1 | 5.22 | 3.12 | 4.44 | 3.35 | 6.45
CUACUUCAAACAAUCGGUAAG [Fam1A.1 aminoacylation ribozyme variant] | 0.448 | 0.835 | 0.662 | 0.454 | 0.516 | 1.29
CUACUUCAAACAAUCGGUAUG [Fam1A.1 aminoacylation ribozyme variant] | 0.995 | 10.1 | 0.799 | 0.789 | 0.788 | 21.5
CUACUUCAAACAAUCGGUCCG [Fam1A.1 aminoacylation ribozyme variant] | 0.862 | 5.32 | 0.749 | 0.745 | 0.711 | 8.83
CUACUUCAAACAAUCGGUGGG [Fam1A.1 aminoacylation ribozyme variant] | 0.878 | 0.856 | 0.816 | 0.811 | 0.934 | 1.14
CUACUUCAAACAAUCGGUUGG [Fam1A.1 aminoacylation ribozyme variant] | 0.788 | 1.82 | 0.812 | 0.619 | 0.843 | 3.55
CUACUUCAAACAAUCGGUUUU [Fam1A.1 aminoacylation ribozyme variant] | 1.1 | 1.44 | 1.26 | 0.931 | 1.31 | 2.35
CUACUUCAAACAAUCGUUCGG [Fam1A.1 aminoacylation ribozyme variant] | 0.637 | 0.473 | 0.623 | 0.641 | 0.787 | 0.675
CUACUUCAAACAAUCGUUCUU [Fam1A.1 aminoacylation ribozyme variant] | 0.64 | 0.574 | 0.729 | 0.716 | 0.712 | 0.947
CUACUUCAAACAAUCGUUGUG [Fam1A.1 aminoacylation ribozyme variant] | 1.7 | 1.38 | 1.15 | 1.68 | 1.17 | 1.69
CUACUUCAAACAAUCUGGCUG [Fam1A.1 aminoacylation ribozyme variant] | 1.02 | 0.664 | 0.963 | 0.844 | 0.963 | 0.69
CUACUUCAAACAAUGCGUCUG [Fam1A.1 aminoacylation ribozyme variant] | 0.975 | 0.738 | 0.887 | 1.09 | 1.17 | 0.887
CUACUUCAAACAAUGGGCCUG [Fam1A.1 aminoacylation ribozyme variant] | 1.19 | 0.896 | 1.16 | 1.25 | 1.4 | 1.67
CUACUUCAAACAAUGUGUCUG [Fam1A.1 aminoacylation ribozyme variant] | 0.716 | 0.583 | 0.848 | 0.662 | 0.838 | 0.725
CUACUUCAAACAAUUGAUCUG [Fam1A.1 aminoacylation ribozyme variant] | 0.642 | 0.543 | 0.688 | 0.765 | 0.832 | 0.576
CUACUUCAAACAAUUGGUCGG [Fam1A.1 aminoacylation ribozyme variant] | 1.18 | 0.932 | 1.11 | 0.91 | 1.25 | 0.858
CUACUUCAAACACUCAGUCUG [Fam1A.1 aminoacylation ribozyme variant] | 0.685 | 0.601 | 0.732 | 0.727 | 0.798 | 1.02
CUACUUCAAACACUCGGCCUG [Fam1A.1 aminoacylation ribozyme variant] | 2.05 | 2.01 | 2.38 | 1.59 | 1.96 | 1.38
CUACUUCAAACACUCGGUCUC [Fam1A.1 aminoacylation ribozyme variant] | 0.953 | 0.9 | 0.808 | 0.794 | 0.998 | 0.739
